According to US20220288203A1:

How the values were obtained:
[1] = target: Human podocalyxin as endogenously expressed and displayed by tumor cell lines (A172, SKOV3, MIA PaCa-2, MDA-MB-231) (human) (UniProt O00592); experiment: flow cytometry titration on A172 cells, four-parameter fit (Prism)
[2] = target: Human podocalyxin as endogenously expressed and displayed by tumor cell lines (A172, SKOV3, MIA PaCa-2, MDA-MB-231) (human) (UniProt O00592); experiment: KinExA 3200; titrated A172 cells with constant antibody, 16 h equilibrium
[3] = target: Human podocalyxin as endogenously expressed and displayed by tumor cell lines (A172, SKOV3, MIA PaCa-2, MDA-MB-231) (human) (UniProt O00592); experiment: KinExA 3200; titrated A172 cells with constant antibody, 16 h equilibrium, free antibody measured

Human podocalyxin as endogenously expressed and displayed by tumor cell lines (A172, SKOV3, MIA PaCa-2, MDA-MB-231) (human), sequence (O00592 23-558): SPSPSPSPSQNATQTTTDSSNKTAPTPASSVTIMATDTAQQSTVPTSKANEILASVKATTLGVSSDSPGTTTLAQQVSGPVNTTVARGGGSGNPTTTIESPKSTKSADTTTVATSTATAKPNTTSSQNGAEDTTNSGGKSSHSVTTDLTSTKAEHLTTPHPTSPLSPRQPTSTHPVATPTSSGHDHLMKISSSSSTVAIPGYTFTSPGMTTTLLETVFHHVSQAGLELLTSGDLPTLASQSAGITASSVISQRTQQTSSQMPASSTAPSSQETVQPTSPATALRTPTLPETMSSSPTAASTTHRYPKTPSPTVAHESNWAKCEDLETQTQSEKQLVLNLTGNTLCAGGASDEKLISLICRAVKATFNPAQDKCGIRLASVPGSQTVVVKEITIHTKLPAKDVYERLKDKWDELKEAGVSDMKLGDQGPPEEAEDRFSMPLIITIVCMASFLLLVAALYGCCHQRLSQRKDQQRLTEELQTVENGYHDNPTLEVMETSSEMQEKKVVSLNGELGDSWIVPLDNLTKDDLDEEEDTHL

Bottom (best-fit) [1]	LogIC50 [1]	Span (best-fit) [1]	Top (best-fit) [1]	Epitopes/Cell (epitopes/cell) [2]	Kd High [2] [nM]	Kd Low [2] [nM]	Kd [3] [nM]	Binder
8630	2.28	371000	380000	420000	0.0249	0.0023	0.00757	Podo447, recombinant rabbit/human chimeric anti-podocalyxin antibody (rabbit V genes, human IgG1 and kappa constant regions) (antibody, V domains shown) VH: QSLEESGGRLVTPGTPLTLTCTASGFSLSGYQMNWVRQAPGKGLEWIGYIWSDGGTDYASWAKGRFTISKTSSTTVDLKMTSLTTEDTATYFCAREGYWLGAFDPWGPGTLVTVSS VL: AAVLTQTPSPVSAAVGATVSVSCQSSQSVHHKNDLAWFQQKPGQPPKLLIYYTSTLASGVPSRFKGSGSGTQFTLTISDLECDDAATYYCAGVYEGSSDNRAFGGGTEVVVKR
1940	2.09	236000	238000	233000	0.0459	0.00459	0.0144	Humanized Podo447 (humanized_podo447VH_hIgG1C + humanized_podo447VL6_hIgkC) (antibody, V domains shown) VH: EVQLVESGGGLVQPGRSLRLSCTASGFSLSGYQMNWVRQAPGKGLEWVGYIWSDGGTDYTASVKGRFTISRDGSKSIAYLQMNSLKTEDTAVYYCAREGYWLGAFDPWGQGTSVTVSA VL: AAQLTQSPSPLSASVGDRVTITCQSSQSVHHKNDLAWYQQKPGKAPKLLIYYTSTLASGVPSRFSGSGSGTDFTLTISSLQPEDFATYYCAGVYEGSSDNRAFGGGTKVEIKR
